Data from PMC4116228.

How the values were obtained:
Active MMP-2 = assay: enzyme inhibition (fluorogenic substrate, Ki by the Morrison equation); Active MMP-2 (0.76 nM) with FLAG-TIMP-1 or FLAG-T2G (0.17 to 13.5 nM), 2 h at 27 C; 50 mM Tris-HCl pH 7.5, 150 mM NaCl, 5 mM CaCl2; substrate MCA-Pro-Leu-Gly-Leu-Dpa-Ala-Arg-NH2
[1] = biological target: Recombinant human LRP-1 Fc-tagged mini-domain II (human); assay: SPR; Fc-DII or Fc-DIV captured by anti-Fc antibody immobilised on a CMD500m chip (around 8 fmol/mm^2); TIMP-1 or EGF 5 to 80 nM injected sequentially (single-cycle kinetics, 2 min at 50 ul/min); 25 C; HBS (50 mM HEPES-NaOH pH 7.4, 150 mM NaCl, 0.005% Tween-20); corrected for Fc-coated flow cell and blank run; 1:1 titration kinetic model; Biacore T200
[2] = biological target: Recombinant human LRP-1 Fc-tagged mini-domain IV (human); assay: as above
[3] = biological target: HA-tagged mini LRP-IV (LRP-1 mini-receptor with ligand-binding domain IV)
[4] = biological target: HA-tagged mini LRP-II (LRP-1 mini-receptor with ligand-binding domain II)
[5] = biological target: Endogenous LRP-1 of mouse cortical neurons (alpha-chain and beta-chain) (mouse (endogenous in primary cortical neurons))
[6] = biological target: Endogenous LRP-1 of mouse cortical neurons (alpha-chain and beta-chain) (mouse (endogenous in primary cortical neurons)); remark: listed apart in the source

Substance: FLAG-tagged full-length TIMP-1 T2G mutant (from UniProt P01033 24-207) (natural protein)
- Ki (Active MMP-2): 18.9 nM

Substance: Human recombinant TIMP-1 (tissue inhibitor of metalloproteinases-1) (from UniProt P01033 24-207) (natural protein)
- Kd [1]: 11.2 nM
- koff [1]: 0.021 s⁻¹
- kon [1]: 1.87e+06 M⁻¹ s⁻¹
- Kd [2]: 52.4 nM
- koff [2]: 0.0135 s⁻¹
- kon [2]: 255000 M⁻¹ s⁻¹

Substance: Fluorescent TIMP-1 (eFluor-conjugated recombinant TIMP-1) (from UniProt P01033 24-207) (natural protein)
- internalisation of surface-bound fluo-TIMP-1 (10 nM) by DIV-overexpressing CHO cells after 2 h at 37 C (pronase-resistant fluorescence); significantly impeded by 500 nM RAP [3]: 50%
- internalisation of surface-bound fluo-TIMP-1 (10 nM) by DII-overexpressing CHO cells after 2 h at 37 C (pronase-resistant fluorescence); significantly impeded by 500 nM RAP [4]: 50%
- inhibition by 500 nM RAP of the internalisation of fluo-TIMP-1 by cortical neurons (37 C, pronase-resistant fluorescence) [5]: 2 fold

Substance: FLAG-tagged wild type TIMP-1 (from UniProt P01033 24-207) (natural protein)
- Ki (Active MMP-2): 0.09 nM
- growth cone volume of cortical neurons after 30 min with 10 nM TIMP-1; the increase is prevented by RAP or blocking LRP-1 antibodies [6]: 2.8 fold
